Reference: patent publication US20100104564A1 (published 2010)

B1: anti-CD30 antibody (5F11) variant E345W (antibody)
heavy: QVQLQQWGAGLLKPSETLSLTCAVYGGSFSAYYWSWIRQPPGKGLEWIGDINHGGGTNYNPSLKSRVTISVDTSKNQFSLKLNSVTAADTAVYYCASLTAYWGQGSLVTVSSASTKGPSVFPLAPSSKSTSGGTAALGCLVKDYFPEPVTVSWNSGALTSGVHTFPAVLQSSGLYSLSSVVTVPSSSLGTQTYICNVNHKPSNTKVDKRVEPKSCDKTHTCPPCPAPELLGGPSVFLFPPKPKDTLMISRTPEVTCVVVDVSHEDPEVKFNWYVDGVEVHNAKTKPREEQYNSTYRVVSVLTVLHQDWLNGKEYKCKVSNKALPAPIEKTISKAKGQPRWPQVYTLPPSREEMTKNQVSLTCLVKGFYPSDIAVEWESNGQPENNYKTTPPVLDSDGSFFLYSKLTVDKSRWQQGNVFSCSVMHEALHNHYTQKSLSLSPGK
light: DIQMTQSPTSLSASVGDRVTITCRASQGISSWLTWYQQKPEKAPKSLIYAASSLQSGVPSRFSGSGSGTDFTLTISSLQPEDFATYYCQQYDSYPITFGQGTRLEIKRTVAAPSVFIFPPSDEQLKSGTASVVCLLNNFYPREAKVQWKVDNALQSGNSQESVTEQDSKDSTYSLSSTLTLSKADYEKHKVYACEVTHQGLSSPVTKSFNRGEC
notes: Single Fc substitution in the 5F11 antibody; EU numbering, not the numbering of the UniProt entry
B2: anti-CD30 antibody (5F11) variant P247I (antibody)
heavy: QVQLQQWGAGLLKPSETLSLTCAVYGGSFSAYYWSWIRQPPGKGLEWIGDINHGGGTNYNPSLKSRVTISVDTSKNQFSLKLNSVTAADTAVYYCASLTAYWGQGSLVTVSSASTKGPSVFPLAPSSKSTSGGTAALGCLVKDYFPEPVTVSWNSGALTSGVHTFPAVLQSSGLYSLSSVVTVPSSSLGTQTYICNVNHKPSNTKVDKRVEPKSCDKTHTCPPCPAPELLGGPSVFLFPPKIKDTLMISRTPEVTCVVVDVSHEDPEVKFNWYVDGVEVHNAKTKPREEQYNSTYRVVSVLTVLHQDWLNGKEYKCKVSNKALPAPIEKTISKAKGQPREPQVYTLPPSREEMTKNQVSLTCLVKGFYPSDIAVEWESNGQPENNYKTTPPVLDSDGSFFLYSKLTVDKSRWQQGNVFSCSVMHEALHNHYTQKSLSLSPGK
light: B1 light
notes: Single Fc substitution in the 5F11 antibody; EU numbering, not the numbering of the UniProt entry; copies: 2 + 2
B3: anti-CD30 antibody (5F11) variant E356K (antibody)
heavy: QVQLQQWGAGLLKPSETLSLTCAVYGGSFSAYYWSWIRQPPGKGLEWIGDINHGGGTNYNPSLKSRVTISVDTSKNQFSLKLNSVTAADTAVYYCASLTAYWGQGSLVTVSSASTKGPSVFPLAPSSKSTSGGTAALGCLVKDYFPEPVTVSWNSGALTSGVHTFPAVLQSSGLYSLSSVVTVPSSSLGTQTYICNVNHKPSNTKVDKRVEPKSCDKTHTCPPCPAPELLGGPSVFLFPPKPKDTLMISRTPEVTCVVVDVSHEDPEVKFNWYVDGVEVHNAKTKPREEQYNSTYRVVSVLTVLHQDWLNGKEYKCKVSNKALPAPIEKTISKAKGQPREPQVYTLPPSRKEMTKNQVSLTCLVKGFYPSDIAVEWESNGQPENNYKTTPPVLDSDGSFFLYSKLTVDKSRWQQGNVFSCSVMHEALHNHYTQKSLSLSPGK
light: B1 light
notes: Single Fc substitution in the 5F11 antibody; EU numbering; copies: 2 + 2
B4: anti-CD30 antibody (5F11) variant A378P (antibody)
heavy: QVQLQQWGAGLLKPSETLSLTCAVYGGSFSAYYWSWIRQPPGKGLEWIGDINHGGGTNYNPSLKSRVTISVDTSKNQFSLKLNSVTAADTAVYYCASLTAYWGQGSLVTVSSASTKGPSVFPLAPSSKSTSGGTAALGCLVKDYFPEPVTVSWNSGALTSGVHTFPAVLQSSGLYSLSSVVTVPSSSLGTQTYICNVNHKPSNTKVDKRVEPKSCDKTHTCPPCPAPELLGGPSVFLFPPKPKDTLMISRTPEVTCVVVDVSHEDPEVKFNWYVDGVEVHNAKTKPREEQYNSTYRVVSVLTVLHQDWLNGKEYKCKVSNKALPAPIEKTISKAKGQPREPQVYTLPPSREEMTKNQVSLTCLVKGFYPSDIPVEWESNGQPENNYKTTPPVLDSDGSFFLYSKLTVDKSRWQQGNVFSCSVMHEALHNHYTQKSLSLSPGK
light: B1 light
notes: as for B2
B5: anti-CD30 antibody (5F11) variant P396I (antibody)
heavy: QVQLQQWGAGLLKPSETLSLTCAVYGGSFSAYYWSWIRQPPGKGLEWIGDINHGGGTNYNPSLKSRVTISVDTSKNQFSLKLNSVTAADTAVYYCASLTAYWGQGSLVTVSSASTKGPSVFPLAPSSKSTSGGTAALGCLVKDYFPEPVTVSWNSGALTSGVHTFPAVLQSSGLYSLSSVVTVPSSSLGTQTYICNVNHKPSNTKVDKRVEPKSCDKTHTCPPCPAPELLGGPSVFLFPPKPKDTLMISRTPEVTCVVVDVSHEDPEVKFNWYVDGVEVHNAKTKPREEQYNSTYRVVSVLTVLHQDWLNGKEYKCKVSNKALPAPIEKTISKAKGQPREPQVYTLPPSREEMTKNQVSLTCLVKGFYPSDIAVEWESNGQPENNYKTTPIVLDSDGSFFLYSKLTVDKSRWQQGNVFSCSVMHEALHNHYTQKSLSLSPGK
light: B1 light
notes: as for B2
B6: anti-CD30 antibody (5F11) variant D376T (antibody)
heavy: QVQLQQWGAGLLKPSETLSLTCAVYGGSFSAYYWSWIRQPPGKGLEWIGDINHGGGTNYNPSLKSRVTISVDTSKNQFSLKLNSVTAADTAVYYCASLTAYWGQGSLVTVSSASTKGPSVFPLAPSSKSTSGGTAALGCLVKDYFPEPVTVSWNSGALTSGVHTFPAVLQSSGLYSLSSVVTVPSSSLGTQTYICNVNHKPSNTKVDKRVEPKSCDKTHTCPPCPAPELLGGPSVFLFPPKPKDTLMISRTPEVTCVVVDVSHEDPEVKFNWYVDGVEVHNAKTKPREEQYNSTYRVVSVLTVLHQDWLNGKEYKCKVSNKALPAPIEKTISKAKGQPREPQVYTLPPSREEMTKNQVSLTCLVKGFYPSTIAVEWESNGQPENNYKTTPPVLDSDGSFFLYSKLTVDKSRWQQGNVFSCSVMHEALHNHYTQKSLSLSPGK
light: B1 light
notes: as for B2
B7: anti-CD30 antibody (5F11) variant S254W (antibody)
heavy: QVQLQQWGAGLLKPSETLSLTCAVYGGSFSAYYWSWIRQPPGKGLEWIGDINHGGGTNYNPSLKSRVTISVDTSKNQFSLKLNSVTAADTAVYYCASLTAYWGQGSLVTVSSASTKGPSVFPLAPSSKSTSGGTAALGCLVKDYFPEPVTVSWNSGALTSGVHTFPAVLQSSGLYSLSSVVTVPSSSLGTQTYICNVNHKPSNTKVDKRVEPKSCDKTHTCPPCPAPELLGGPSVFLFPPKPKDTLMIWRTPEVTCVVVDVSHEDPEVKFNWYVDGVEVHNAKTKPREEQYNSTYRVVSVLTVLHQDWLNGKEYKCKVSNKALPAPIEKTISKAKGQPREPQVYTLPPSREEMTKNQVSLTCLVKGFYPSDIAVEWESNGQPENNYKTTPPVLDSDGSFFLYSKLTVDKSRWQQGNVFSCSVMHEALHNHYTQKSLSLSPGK
light: B1 light
notes: as for B2
B8: anti-CD30 antibody (5F11) variant S426W (antibody)
heavy: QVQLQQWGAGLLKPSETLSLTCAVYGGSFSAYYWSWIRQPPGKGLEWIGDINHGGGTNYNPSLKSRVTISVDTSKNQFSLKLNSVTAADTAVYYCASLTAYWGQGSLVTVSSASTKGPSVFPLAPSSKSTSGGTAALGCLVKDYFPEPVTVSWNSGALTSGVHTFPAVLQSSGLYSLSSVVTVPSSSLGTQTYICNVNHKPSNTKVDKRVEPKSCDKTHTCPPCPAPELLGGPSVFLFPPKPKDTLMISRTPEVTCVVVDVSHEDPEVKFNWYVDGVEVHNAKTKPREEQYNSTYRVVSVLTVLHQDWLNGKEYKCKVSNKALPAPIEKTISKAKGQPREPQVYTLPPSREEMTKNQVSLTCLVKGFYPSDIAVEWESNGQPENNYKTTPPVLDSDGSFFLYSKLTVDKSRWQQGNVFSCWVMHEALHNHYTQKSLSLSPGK
light: B1 light
notes: as for B2
B9: anti-CD30 antibody (5F11) variant F404W (antibody)
heavy: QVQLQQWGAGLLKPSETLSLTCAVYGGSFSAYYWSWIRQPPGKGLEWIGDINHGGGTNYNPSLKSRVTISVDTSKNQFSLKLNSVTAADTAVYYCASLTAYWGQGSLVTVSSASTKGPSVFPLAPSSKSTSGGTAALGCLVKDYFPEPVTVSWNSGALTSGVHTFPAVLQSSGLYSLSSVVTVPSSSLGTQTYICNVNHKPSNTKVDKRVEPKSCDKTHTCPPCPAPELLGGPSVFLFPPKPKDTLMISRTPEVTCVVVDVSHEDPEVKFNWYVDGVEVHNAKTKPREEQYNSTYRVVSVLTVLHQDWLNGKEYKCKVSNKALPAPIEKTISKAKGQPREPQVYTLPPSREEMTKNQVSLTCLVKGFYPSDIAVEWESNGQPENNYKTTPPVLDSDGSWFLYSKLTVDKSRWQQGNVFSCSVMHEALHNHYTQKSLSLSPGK
light: B1 light
notes: as for B2
B10: anti-CD30 antibody (5F11) variant G446W (antibody)
heavy: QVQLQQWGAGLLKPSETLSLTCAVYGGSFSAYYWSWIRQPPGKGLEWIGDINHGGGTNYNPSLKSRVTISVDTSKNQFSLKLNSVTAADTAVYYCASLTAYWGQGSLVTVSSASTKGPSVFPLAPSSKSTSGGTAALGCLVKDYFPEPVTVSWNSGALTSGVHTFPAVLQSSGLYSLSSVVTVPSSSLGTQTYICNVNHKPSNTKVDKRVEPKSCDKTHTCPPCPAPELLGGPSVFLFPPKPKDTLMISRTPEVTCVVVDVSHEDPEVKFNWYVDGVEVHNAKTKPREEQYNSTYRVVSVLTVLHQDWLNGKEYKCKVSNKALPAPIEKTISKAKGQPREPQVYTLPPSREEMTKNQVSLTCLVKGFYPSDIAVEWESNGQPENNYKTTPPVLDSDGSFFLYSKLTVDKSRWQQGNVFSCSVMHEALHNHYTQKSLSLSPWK
light: B1 light
notes: as for B2
B11: anti-CD30 antibody (5F11) variant S354R (antibody)
heavy: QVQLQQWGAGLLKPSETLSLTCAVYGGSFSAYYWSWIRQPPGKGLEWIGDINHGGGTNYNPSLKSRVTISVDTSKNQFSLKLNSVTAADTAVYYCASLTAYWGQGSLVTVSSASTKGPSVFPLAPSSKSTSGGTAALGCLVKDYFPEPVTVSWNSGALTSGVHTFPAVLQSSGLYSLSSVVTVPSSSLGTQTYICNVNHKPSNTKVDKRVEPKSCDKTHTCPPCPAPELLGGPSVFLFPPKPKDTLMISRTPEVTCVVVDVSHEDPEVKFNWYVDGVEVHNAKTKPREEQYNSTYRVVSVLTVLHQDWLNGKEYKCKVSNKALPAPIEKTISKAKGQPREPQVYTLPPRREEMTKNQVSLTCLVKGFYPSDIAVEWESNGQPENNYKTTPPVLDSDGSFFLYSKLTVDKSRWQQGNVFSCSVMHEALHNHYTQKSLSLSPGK
light: B1 light
notes: as for B2

What follows are binders tested against T1, human FcRn (recombinant soluble receptor, 6XHis, co-expressed with beta2 microglobulin) (human, UniProt P61769 21-119) (assay: Luminex assay, pH 6).
T1 construct: purified on nickel; also called huFcRn

Row | FcRn binding at pH 6 (fold difference vs wild type anti-CD30) [fold vs wild type] | Binder
1 | 1.3 | B1
2 | 1.1 | B2
3 | 1.4 | B3
4 | 0.6 | B4
5 | 1.4 | B5
6 | 1.6 | B6
7 | 0.2 | B7
8 | 0.6 | B8
9 | 1.7 | B9
10 | 1.1 | B10
11 | 1.3 | B11
